One assay has as its target T1, human CD3 epsilon (CD3ε) (human, UniProt P07766 23-207).
T1 construct: Present on donor human T cells as part of the TCR-CD3 complex; also called CD3ε on human T cells
As to the kind of experiment: flow cytometry on human T cells. The protocol: (§1) In these experiments, human or cynomolgus T cells were incubated with an anti-CD3ε antibody and binding was assessed by flow cytometry.
(§2) Briefly, donor T cells from either human or cynomolgus donors were resuspended in FACS buffer containing 0.1% sodium azide and aliquoted in 100 μL volumes. For incubation, 100 μL aliquots of donor T cells were mixed with 50 μL of antibodies diluted in FACS buffer containing 0.1% sodium azide. The cells were then washed twice with FACS buffer containing sodium azide. The bound antibody was detected by incubating cells for 60 minutes with a 1:200 dilution of SAV-RPE (Invitrogen Cat No. SA10044, Lot. 1542820A) or 1:100 dilution of goat-anti-Mouse Fcγ-RPE (Jackson Cat. No. 115-116-071, Lot. 108668, diluted in 0.2% goat serum). The cells were washed, fixed, and analyzed with an Accuri Flow Cytometer.
(§3) Treatment with OKT3, SP34-2, and diL2K antibodies were used as positive controls for T cell binding. […] Treatment with OKT3, SP34-2, and diL2K antibodies were used as controls for T cell binding with only SP34-2 binding to cynomolgus T cells, as expected.
On the technique in general: In flow cytometry, cells or beads pass a laser one at a time.

In assay [1] the target is T2, cynomolgus CD3-epsilon (cynomolgus, UniProt Q95LI5 22-198).
T2 construct: whole, on cells; also called CD3ε on cynomolgus T cells / PBMCs
T2 sequence (Q95LI5 22-198): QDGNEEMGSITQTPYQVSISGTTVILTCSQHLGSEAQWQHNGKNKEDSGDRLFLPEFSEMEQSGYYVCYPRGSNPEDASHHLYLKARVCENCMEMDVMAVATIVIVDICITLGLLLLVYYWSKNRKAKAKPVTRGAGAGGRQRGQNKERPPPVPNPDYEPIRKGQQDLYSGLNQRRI
As to the kind of experiment: flow cytometry on cynomolgus T cells. How it is done:
as §1, §2, §3

The target of assay [2] is T3, biotinylated 15-mer peptide corresponding to the CD3ε N-terminus (human, UniProt P07766 22-36, limits assumed, not fully specified; reading uncertain).
T3 construct: domain: N-terminal 15-mer; Immobilised on streptavidin-conjugated Luminex beads; The text says 'peptides' in the plural, so more than one overlapping N-terminal 15-mer may be meant; also called N-terminal 15-mer; biotinylated N-terminal 15-mer
T3 peptide (looked up): {Biotin-linker}-QDGNEEMGGITQTPY
As to the kind of experiment: Luminex bead assay, peptide on streptavidin beads. The protocol: A set of experiments was performed to map the epitope recognized by the anti-CD3ε antibodies. In these experiments, the anti-CD3ε antibodies were assessed for binding to a collection of overlapping 15-mer peptides spanning amino acids 1-27 of human CD3ε protein using a Luminex bead assay. Control CD3 proteins, control peptides, or the test peptides were immobilized on Luminex beads and incubated with a panel of anti-CD3 antibodies. Binding of the anti-CD3 antibodies to the peptide/protein immobilized on the Luminex bead was detected by R-Phycoerythrin conjugated secondary antibody.
Recombinant CD3 proteins (human CD3d/e heterodimer and cynomolgus CD3-epsilon (Sinobiological)) and control peptides (#p1, #p2, and #p3) were conjugated to Luminex beads using standard EDC/Sulfo-NHS chemistry. […] The Luminex beads with immobilized peptides or reagents were incubated with 50 ul of a panel of anti-CD3 antibodies (1 ug/ml) for one hour at room temperature, washed two times, incubated with mixture of anti-human and anti-mouse IgG-RPE (Jackson Immunoresearch 109-116-097 and Southern Biotech 1030-09, respectively) for 30 mins at RT, washed three times, and analyzed in the Luminex instrument to assess the level of bound anti-CD3 antibodies.

Assay [3] has as its target T4, AGS73.15 (MS497).
T4 construct: It carries a human IgG Fc (detected with anti-human IgG Fc)
As to the kind of experiment: flow cytometry, blocking of AGS73.15 binding to CD3ε on human T cells, % binding, the axis reads nM.

Assay [4] addresses T4, AGS73.15 (MS497). As to the kind of experiment: flow cytometry, blocking of AGS73.15 (200 ng/ml) binding to CD3ε on human T cells; AGS73.15 detected with anti-human IgG Fc-PE.
Assay [5] has as its target T2, cynomolgus CD3-epsilon. Briefly: flow cytometry, three-colour staining (CD3/CD4/CD8) of cynomolgus PBMCs of three donors. The protocol: Cross-reactivity of anti-CD3ε antibodies to cynomolgus CD3-epsilon was assessed by three-color phenotyping (CD3/CD4/CD8) using PBMCs from three different cynomolgus donors.
PBMCs from different cynomolgus donors were stained with anti-CD4, anti-CD8, and a panel of different anti-CD3 antibodies. For each anti-CD3 antibody, the CD3 positive cells were gated and assessed for their CD4/CD8 phenotype. FIG. 8A depicts the total CD3 positive cells in PBMCs from the three different donors. FIGS. 8B-8E show the percentage of CD3 positive cells displaying CD4−/CD8+, CD4+/CD8−, CD4+/CD8+, and CD4−/CD8− phenotypes, respectively.

No end group written: not given here. *: point of attachment. Biotin = O=C1N[C@H]2[C@H](CS[C@H]2CCCCC(=O)*)N1; linker = not defined here

B1: 4b8 (antibody, V domains shown)
VH: EVQLVESGGGLVKPGGSLRLSCAASGFTFSSYSMNWVRQAPGKGLDWVSYISRSSNYTYYADSVMGRFTISRDNAKNSLYLQMNSLRAEDTAVYYCARDRRGYSGYNHFDYWGQGTLVTVSS
VL: DIQMTQSPSSLSASVGDRVTITCRASQSISNYLNWYQQKPGKAPKLLIYAASSLQSGVPSRFSGSRSGTDFTLTISSLQPEDFASYYCQQSFSTLYTFGQETKLEIKR
notes: Anti-CD3ε antibody
Turning to B1, the concentration for a half-maximal effect (EC50 (read off the curve)) (as a rule, the concentration that produces a half-maximal response) with human CD3 epsilon (CD3ε) was 1 to 3 nM. In addition, the binding result in the assay with cynomolgus CD3-epsilon [1] is “no binding”.

B2: 6d23 (antibody, V domains shown)
VH: QVQLVESGGGVVQPGRSLRLSCEASGFTFRSYGMHWVRQAPGKGLEWVAIIWYDGSNKYYGDSVKGRFTISRDNSKNTLSLQMNSLRAEDTAVYYCASLSVNDYYVLDVWGQGTTVTVSS
VL: DVVMTQSPFSLPVTLGQPASMSCRSSQSLVNSDGKTHLNWFQQRPGQSPRRLIYKVSNRDSGVPDRFSGSGSGTDFTLKISRVEAEDVGVYYCMQGTHWPLTFGGGTKVEIKR
notes: Anti-CD3ε antibody; also called 6d23.1; VCD3-6d23.1
On to B2, for which the binding result in assay [2] is reported as “no binding (tested: 1 ug/ml)”.

B3: 6d59.id.1b54.1 (antibody, V domains shown)
VH: DVQLQESGPGLVKPSQSLSLTCSVTGYSITSSYYWNWIRQFPGNKLEWMGSIMYDGNNNYNPSLKNRISITRDTSKNQFFLKLNSVTTEDTATYYCARNMADYFGNTYDALDYWGQGTSVTVSS
VL: DILLTQSPGSLAVSLGQRATISCKASQSADYGGDSYMSWYQQKPGQPPKLLIYAASNLESGTPARFSGSGSGTDFTLNIHPVEEEDAATYYCQQGNEDPWTFGGGTKLEIKR
notes: Anti-idiotypic antibody against 6d59
With B3, a half-maximal response with AGS73.15 (MS497) [3] (EC50) required 0.413 nM. Besides, the “IC50 (read off the curve)” value in the assay with AGS73.15 (MS497) [4] was approximately 0.07 µg/mL.

B4: 6d59.id.1b73.1 (antibody, V domains shown)
VH: QVQLQQSGPEVVKPGASVKMSCKASGYTFTDCVISWIKQRTGQGLEWIGEIHPGSGNTYNNEKFKGKATLTADKSSNTAYIQLSSLTSEDSAVYFCARVGDWYDDAMDYWGQGTSVTVSS
VL: DIVLTQSPASLAVSLGQRATISCKASQSVDYDGNGYMNWYQQKPGQPPKLLIYAASNLESGIPARFSGSGSGTDFTLNIHPVEEEDAATYYCQQSNEDPYTFGGGTKLEIKR
notes: as for B3
For the molecule B4, a half-maximal response with AGS73.15 (MS497) [3] (EC50) required 0.335 nM. Further, the “IC50 (read off the curve)” value with AGS73.15 (MS497) [4] is approximately 0.05 µg/mL.

B5: 6d59.id.1b71.1 (antibody, V domains shown)
VL: DIVLTQSPASLAVSLGQRATISCKASQSVDYDGNGYMNWYQQKPGQPPKLLIYAASNLESGIPARFSGSGSGTDFTLNIHPVEEEDAATYYCQQSNEDPYTFGGGTKLEIKR
V domain: EVQLQQSGSELASPGTSVKLSCKASGYTFTSYWVQWIKQRPGQGLEWIGAIYPGDGDLRSTQKFKGKATLTADKSSDTAYMQLSSLASEDSAVYYCARLDDFDLDYWGQGTTLIVSS
notes: as for B3
For B5, the EC50 (usually the concentration giving half of the maximal effect) with AGS73.15 (MS497) [3] is 0.327 nM. In addition, the “IC50 (read off the curve)” value in the assay with AGS73.15 (MS497) [4] was approximately 0.06 µg/mL.

B6: 6d59.id.1b76.1 (antibody, V domains shown)
VH: DVKLVDSGGGLVKPGGSLKLSCAASGFTFSNYGMSWVRQTPEKRLEWVATISSGGYYTYYPDSVKGRFTISRDNAKNTLYLQMGSLKSEDTAMYYCSRDREGFGNYLGAMDYWGQGTSVTVSS
VL: DIVLTQSPASLAVSLGQRATISCKASQSVDYDGNGYMNWYQQKPGQPPKLLIYAASNLESGIPARFSGSGSGTDFTLNIHPVEEEDAATYYCQQSNEDPYTFGGGTKLEIKR
notes: as for B3
B6 returned an EC50 with AGS73.15 (MS497) [3] of 0.243 nM. In addition, the “IC50 (read off the curve)” value with AGS73.15 (MS497) [4] was approximately 0.05 µg/mL.

B7: 6d59.id.1b61.1 (antibody, V domains shown)
VH: DVQLQESGPGLVKPSQSLSLTCSVTGYSITSSYYWNWIRQFPGNKLEWMGYIMYDGNNNYNPSLKNRISITRDTSKNQFFLKLNSVTTEDTATYYCARNMADYFGNTYDALDYWGQGTSVTVSS
VL: DILLTQSPGSLAVSLGQRATISCKASQSADYGGDSYMSWYQQKPGQPPKLLIYAASNLESGTPARFSGSGSGTDFTLNIHPVEEEDAATYYCQQGNEDPWTFGGGTKLEIKR
notes: as for B3
With B7, the half-maximal effective concentration (EC50) in the assay with AGS73.15 (MS497) [3] is 0.368 nM. In the assay with AGS73.15 (MS497) [4], the “IC50 (read off the curve)” value is approximately 0.06 µg/mL.

B8: 6d58 (antibody, V domains shown)
VH: QVHLVESGGGVVQPGRSLRLSCAASGFKFRSYGMHWVRQAPGKGLEWVAIIWYDGSKRYYADSVKGRFTISRDNSKNTLYLQMSSLRAEDTAVYYCARDLITGTTDYWGQGTLVTVSS
VL: DVVMTQSPLSLPVTLGQPASISCRSSRSLVYSDGNTHLIWFQQRPGQSPRRLIYRVSNRVSGVPDRFSGSGSGTDFTLKISRVEAEDVGVYYCLQGAHWPYTFGQGTKLEIKR
notes: also called 6d58 (same as 6d59)
Regarding B8, the “EC50 (read off the curve)” value with human CD3 epsilon (CD3ε) was approximately 0.05 nM; in the assay with cynomolgus CD3-epsilon [1], approximately 0.07 nM.

B9: 1c144.1 (antibody, V domains shown)
VH: ELQLVESGGGLVQPGGSLRLSCAASGFNFRSYEMNWVRQAPGKGLEWVSYISSSSTTIYYAGSVKGRFTISRDNAKHSLYLQMNSLRAEDTAVYYCARDRGALDYWGQGTLVTVSS
VL: DIQMTQSPSSLSASVGDRVTITCQASQDIRKYLNWYQQKPGKAPKLLIYDASNLETGVPSRFSGSGSGTDFSFTISSLQPEDLATYYCQHYANLPPLFTFGPGTKVDIKR
notes: the sheet prints 1c144.1
Turning to B9, the binding result in the assay with cynomolgus CD3-epsilon [5] was “binds”.

B10: 6d59.id.1b67.1 (antibody, V domains shown)
VH: QVTLKESGPGILKPSQTLSLTCSFSGFSLSTSGMGVGWIRQPSGKGLEWLAHIWWDDDKFYKPSLKNRLTISKDTSRNQVFLKITSVDTADAATYFCVRRSAYEAFTLDYWGQGTSVTVSS
VL: DIMLTQSPASLAVSLGQRATISCKASQSVDYDGNGYLNWYQQKPGQPPKLLIYAASNLESGIPARFSGSGSGTDFTLNIHPVEEEDVATYYCQQSSEDPFTFGSGTKLEIKR
notes: as for B3
In the assay with AGS73.15 (MS497) [3], B10 came in with a 50% effective concentration (EC50) of 0.56 nM. Besides, the “IC50 (read off the curve)” value in the assay with AGS73.15 (MS497) [4] was approximately 0.08 µg/mL.

B11: 6d59.id.1b18.1 (antibody, V domains shown)
VH: DVLLQESGPGLVKPSQSLSLTCSVTGYSITSGHYWIWIRQFPGNKLEWMGYITYDGSNNYNPSLKKRISITRDTSENQFFLKLNPVTTEDTATYYCARDVADSYGNGYDAMDYWGQGTSVTVSS
VL: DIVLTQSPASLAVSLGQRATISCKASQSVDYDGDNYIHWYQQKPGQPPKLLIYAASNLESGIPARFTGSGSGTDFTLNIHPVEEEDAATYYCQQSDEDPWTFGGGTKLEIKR
notes: as for B3
B11 displayed an EC50 in the assay with AGS73.15 (MS497) [3] of 0.443 nM. Besides, in the assay with AGS73.15 (MS497) [4], the “IC50 (read off the curve)” value was approximately 0.07 µg/mL.

Values taken from patent publication US20230057263A1 (CYTOMX THERAPEUTICS, published 2023).
